How the values were obtained:
[1] = system: App^NL-G-F and App^NL-F mice; settings: mouse, in vivo, iv
Protocol: After the end of 10-12 weeks of treatment, Bri2 BRICHOS amounts in the CNS were analysed.
Representative sections (A,D) were double stained with anti-Bri2 BRICHOS antibody (red/pink color) and 82E1 anti-Aβ antibody (green color) counterstained with hematoxylin Mayer (blue color) in rh Bri2 BRICHOS R221E or PBS treated App^NL-G-F and App^NL-F mice. Histograms represents mean intensity of Bri2 BRICHOS in hippocampus (B,E) and cortex (C,F) of App^NL-G-F (B,C) and App^NL-F (E,F) mice. Data are shown as mean±SEM (n=3-4 mice/group, 4 histological sections from each mouse analyzed). Unpaired parametric two-tailed t-test was used to calculate p-values. Scale bars represents 400 μm (upper four panels in A and D) and 100 μm (lower two panels in A and D). * p<0.05, ** p<0.01, *** p<0.001, **** p<0.0001.

mice = settings: mouse, in vivo
Aβ42 = Aβ42 (Homo sapiens, UniProt P05067); test: Aβ42 oligomer generation; type: biochemical
[2] = system: hippocampal slice preparations; test: Aβ42-induced neurotoxicity in hippocampal slice preparations
mouse primary neurons = test: Uptake into primary neurons in culture, fluorescence microscopy; type: cell-based; settings: low nanomolar concentrations in culture medium, 24-48 h
Protocol: The data in FIG. 11A indicate that the fusion protein rh NT-Bri2 BRICHOS is internalized in CNS cells and appears in intracellular vesicles. We studied the intracellular localization in more detail, using primary mouse neurons in culture and the recombinant fusion protein mCherry-Bri2 BRICHOS. Recombinant mCherry-Bri2 BRICHOS was added to the culture medium at low nanomolar concentrations, and after 24-48 h the neurons were immobilized and visualized under a fluorescence microscope.

Sequence of Aβ42 (P05067 672-713 limits assumed): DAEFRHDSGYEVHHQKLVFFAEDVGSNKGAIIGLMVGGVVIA

For “Bri2 BRICHOS R221E monomers: rh Bri2 BRICHOS mutated R221E so that the monomer is stabilised (SEQ ID NO: 13)”, the “overall Bri2 BRICHOS staining (mean intensity, hippocampus and cortex) versus PBS” value [1] was “significant increase”, the BBB passage (mice) was “passes the BBB in mice and shows a trend towards higher passage than the wildtype protein” and the “effect on Aβ42 oligomer generation” value (Aβ42) was “selectively reduces Aβ42 oligomer generation”. The “effect on Aβ42-induced neurotoxicity” value [2] was “alleviates Aβ42-induced neurotoxicity”.

With “mCherry: control: ca 30 kDa fluorescent protein derived from sea anemones [reference compound]” the “uptake into primary neurons” value (mouse primary neurons) was “not taken up to any detectable level”.

— patent US20230220038A1, “BRI2 BRICHOS DOMAIN FOR DELIVERY OF PROTEINS INTO CNS NEURONS” (ALPHABETA AB, priority 2021, published 2023)
